Laboratory results from patent US12366576B2, “Compositions, assays, and methods for direct modulation of fatty acid metabolism” (Dana-Farber Cancer Institute, Inc., priority 2016, dated 2025).
Bridge positions count the residues as written; N and C are the ends. Square brackets hold non-standard residues; d marks the D form. Ends that are not written are not given here. S5 = C=CCCC[C@](C)(N)C(=O)O

Molecular target: T1, VLCAD (Homo sapiens, UniProt P49748)
T1 construct: 10x His (N); made in house; host or cells: E. coli BL21(DE3), pET19b
T1 sequence (P49748 40-655): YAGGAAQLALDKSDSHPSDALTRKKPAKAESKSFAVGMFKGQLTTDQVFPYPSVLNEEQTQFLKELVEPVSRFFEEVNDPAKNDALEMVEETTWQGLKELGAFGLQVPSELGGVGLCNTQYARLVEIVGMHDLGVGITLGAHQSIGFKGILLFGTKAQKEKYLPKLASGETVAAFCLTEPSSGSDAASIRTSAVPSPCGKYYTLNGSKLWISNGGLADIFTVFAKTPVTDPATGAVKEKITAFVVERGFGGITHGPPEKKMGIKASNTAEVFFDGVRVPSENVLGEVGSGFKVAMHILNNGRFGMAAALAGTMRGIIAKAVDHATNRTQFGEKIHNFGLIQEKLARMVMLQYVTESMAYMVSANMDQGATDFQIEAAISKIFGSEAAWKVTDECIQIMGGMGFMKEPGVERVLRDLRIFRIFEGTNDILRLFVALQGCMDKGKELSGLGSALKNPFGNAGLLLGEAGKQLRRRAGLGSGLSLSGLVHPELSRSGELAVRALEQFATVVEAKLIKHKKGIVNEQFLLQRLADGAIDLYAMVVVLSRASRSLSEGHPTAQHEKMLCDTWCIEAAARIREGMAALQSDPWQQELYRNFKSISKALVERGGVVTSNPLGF
Assay: 19F NMR binding study with fluorinated SAHB
Settings: fluorinated SAHB 25 μM, VLCAD 0-125 μM
Method: To measure the direct binding interaction, ^19F NMR binding studies were conducted using fluorinated analogs of MCL-1 SAHBD. […] Both SAHBs, however, bind MCL-1ΔNΔC, as illustrated by a chemical shift of the peptide NMR peak in both cases (FIG. 15). […] To perform these experiments, N-terminal Btn-PEG analogs of the peptides were immobilized onto streptavidin probes that were then placed into protein solutions at a variety of concentrations to measure ligand-target association.
VLCAD. Mature human VLCAD lacking its cleavable leader sequence (aa 40-655) (NP_000009.1) was subcloned into the pET19b vector (Novagen) using NdeI and XhoI restriction sites. Correct insertion was confirmed by DNA sequencing. […]
To determine binding of SAHBs to VLCAD, fluorinated SAHB (25 μM) and VLCAD (0-125 μM) were mixed together in VLCAD FPLC buffer including 10% D2O to a final volume of 500 μL. […] The extent to which VLCAD bound the peptide was determined by measuring the peak width at half height (ν1/2) of the peptide ^19F signal. […] MCL-1ΔNΔC binding to SAHBs causes a change in the ^19F chemical shift of the peptide resulting in two peptide signals (instead of peak broadening), so extent of binding was quantified by measuring the peak height of “unbound” peptide relative to the bound peptide signal.

## MCL-1 SAHBD: hydrocarbon-stapled peptide mimicking the MCL-1 BH3 domain (Stabilized Alpha-Helix of BCL-2 Domain), SEQ ID NO:19 (RKALETLRRVGDGV[S5]RNH[S5]TAF; staple 15-19)
  19F NMR peptide peak broadening on VLCAD titration: peak broadens, indicative of a direct binding event
